These are literature values, as cited in publication PMC4448172.

The target in this series is KV1.3 (UniProt P22001).
UniProt P22001, sequence (P22001 whole entry): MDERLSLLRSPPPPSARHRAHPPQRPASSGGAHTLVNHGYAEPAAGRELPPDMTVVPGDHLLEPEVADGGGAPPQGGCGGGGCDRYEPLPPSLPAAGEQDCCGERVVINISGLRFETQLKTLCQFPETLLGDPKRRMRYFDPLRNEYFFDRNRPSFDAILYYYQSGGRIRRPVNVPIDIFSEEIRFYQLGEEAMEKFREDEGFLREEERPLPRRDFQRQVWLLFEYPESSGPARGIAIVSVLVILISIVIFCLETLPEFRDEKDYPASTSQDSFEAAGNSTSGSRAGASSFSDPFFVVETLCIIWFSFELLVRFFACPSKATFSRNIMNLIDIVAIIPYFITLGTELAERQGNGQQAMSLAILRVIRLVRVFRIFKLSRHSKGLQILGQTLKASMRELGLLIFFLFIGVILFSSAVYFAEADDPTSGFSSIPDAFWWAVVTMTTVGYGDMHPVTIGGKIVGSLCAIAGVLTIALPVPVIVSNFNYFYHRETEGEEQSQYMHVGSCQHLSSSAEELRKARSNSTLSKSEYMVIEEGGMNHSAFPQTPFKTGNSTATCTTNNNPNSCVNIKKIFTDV

The term Kd denotes a measure of binding affinity in units of concentration. As for ShK (from UniProt P29187), the equilibrium dissociation constant (Kd) was 0.011 nM.
